Test results taken from article PMC3734082 (The Journal of Cell Biology, 2013).

Assays:
MBP-CHC(1–1074)-His6 = molecular target: T1, MBP-CHC(1–1074)-His6 (UniProt Q00610 1-1074); assay: pull-down
T1 sequence (looked up): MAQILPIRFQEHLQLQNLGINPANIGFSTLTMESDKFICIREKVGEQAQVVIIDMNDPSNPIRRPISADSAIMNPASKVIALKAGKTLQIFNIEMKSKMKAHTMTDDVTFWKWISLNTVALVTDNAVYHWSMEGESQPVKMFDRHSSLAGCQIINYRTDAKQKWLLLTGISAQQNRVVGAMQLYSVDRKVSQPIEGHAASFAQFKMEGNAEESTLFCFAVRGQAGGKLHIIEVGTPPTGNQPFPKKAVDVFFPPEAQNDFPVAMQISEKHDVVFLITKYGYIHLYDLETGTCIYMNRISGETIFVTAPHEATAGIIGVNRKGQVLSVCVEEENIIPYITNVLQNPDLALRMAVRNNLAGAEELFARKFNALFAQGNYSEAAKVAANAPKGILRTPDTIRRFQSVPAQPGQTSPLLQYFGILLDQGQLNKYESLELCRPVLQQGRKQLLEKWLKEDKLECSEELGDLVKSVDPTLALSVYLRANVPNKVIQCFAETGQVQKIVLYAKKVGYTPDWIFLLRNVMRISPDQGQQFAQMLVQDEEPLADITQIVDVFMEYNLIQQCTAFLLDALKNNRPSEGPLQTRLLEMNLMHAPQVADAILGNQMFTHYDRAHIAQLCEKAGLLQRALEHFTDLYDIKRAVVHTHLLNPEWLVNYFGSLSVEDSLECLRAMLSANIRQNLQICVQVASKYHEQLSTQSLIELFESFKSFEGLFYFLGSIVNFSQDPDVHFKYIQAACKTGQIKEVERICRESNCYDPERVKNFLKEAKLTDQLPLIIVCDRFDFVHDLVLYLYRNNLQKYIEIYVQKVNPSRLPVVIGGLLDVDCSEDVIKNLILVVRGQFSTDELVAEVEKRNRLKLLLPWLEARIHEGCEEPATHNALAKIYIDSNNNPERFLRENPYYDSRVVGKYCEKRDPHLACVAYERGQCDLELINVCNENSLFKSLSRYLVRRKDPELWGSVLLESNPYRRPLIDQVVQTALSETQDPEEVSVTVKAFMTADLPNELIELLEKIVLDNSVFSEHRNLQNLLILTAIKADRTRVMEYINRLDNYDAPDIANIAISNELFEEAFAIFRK

[1] = molecular target: T2, MBP-CHC(1–1074)-His6 C+ mutant (UniProt Q00610 1-1074, T87A | Q89A | K96E | K98E); assay: pull-down
T2 sequence (looked up): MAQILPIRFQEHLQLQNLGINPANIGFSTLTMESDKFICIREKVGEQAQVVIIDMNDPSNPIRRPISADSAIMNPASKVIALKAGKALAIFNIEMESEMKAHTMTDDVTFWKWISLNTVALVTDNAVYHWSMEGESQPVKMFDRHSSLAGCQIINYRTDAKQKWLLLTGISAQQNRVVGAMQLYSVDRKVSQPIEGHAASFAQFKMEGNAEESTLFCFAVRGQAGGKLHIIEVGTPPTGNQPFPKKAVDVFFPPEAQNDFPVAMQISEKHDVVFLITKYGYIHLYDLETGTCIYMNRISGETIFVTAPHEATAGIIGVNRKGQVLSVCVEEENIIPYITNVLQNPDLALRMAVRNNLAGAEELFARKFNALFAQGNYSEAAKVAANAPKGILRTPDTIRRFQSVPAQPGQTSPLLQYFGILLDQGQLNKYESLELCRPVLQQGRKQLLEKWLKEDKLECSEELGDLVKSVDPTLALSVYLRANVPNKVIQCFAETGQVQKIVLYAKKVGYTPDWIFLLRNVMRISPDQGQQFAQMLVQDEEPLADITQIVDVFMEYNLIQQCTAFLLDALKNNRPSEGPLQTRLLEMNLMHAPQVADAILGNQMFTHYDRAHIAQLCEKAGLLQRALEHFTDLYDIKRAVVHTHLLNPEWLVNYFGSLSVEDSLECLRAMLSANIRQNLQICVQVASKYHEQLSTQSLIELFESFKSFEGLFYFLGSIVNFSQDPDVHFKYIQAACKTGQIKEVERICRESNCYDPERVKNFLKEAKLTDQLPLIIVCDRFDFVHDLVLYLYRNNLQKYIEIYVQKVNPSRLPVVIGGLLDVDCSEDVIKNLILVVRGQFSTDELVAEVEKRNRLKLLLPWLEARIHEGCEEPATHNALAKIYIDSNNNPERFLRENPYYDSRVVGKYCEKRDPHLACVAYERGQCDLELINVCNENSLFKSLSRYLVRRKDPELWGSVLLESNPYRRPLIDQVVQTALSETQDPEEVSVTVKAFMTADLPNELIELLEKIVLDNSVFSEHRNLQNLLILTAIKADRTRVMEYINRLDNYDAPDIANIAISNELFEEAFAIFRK

B1: GST-TACC3-His6, phosphorylated with Aurora A/TPX2 (natural protein)
chain: not shown
modifications: phosphorylated in vitro with Aurora A/TPX2 (phosphoserine at 558, pS558)
binding result (MBP-CHC(1–1074)-His6): binds | binding result [1]: binds
